Source: patent publication US20100203055A1, “HAIR REGROWTH PROMOTER” (priority 2007, published 2010)
“Also recorded” adds a separate entry of the source.

B1: d77: partial peptide of mouse FGF18, 77 amino acids deleted from N-terminus; SEQ ID NO: 23 (protein)
chain: MTEFYLCMNRKGKLVGKPDGTSKECVFIEKVLENNYTALMSAKYSGWYVGFTKKGRPRKGPKTRENQQDVHFMKRYPKGQAELQKPFKYTTVTKRSRRIRPTHPG
modifications: truncation mutant polypeptide of mouse FGF18(d77)
B2: d22: partial peptide of mouse FGF18, 22 amino acids deleted from N-terminus; SEQ ID NO: 19 (protein)
chain: MRKQLRLYQLYSRTSGKHIQVLGRRISARGEDGDKYAQLLVETDTFGSQVRIKGKETEFYLCMNRKGKLVGKPDGTSKECVFIEKVLENNYTALMSAKYSGWYVGFTKKGRPRKGPKTRENQQDVHFMKRYPKGQAELQKPFKYTTVTKRSRRIRPTHPG
modifications: truncation mutant polypeptide of mouse FGF18(d22)
B3: d16: partial peptide of mouse FGF18, 16 amino acids deleted from N-terminus; SEQ ID NO: 17 (protein)
chain: MARDDVSRKQLRLYQLYSRTSGKHIQVLGRRISARGEDGDKYAQLLVETDTFGSQVRIKGKETEFYLCMNRKGKLVGKPDGTSKECVFIEKVLENNYTALMSAKYSGWYVGFTKKGRPRKGPKTRENQQDVHFMKRYPKGQAELQKPFKYTTVTKRSRRIRPTHPG
modifications: truncation mutant polypeptide of mouse FGF18(d16)
B4: d95: partial peptide of mouse FGF18, 95 amino acids deleted from N-terminus; SEQ ID NO: 24 (protein)
chain: MGTSKECVFIEKVLENNYTALMSAKYSGWYVGFTKKGRPRKGPKTRENQQDVHFMKRYPKGQAELQKPFKYTTVTKRSRRIRPTHPG
modifications: truncation mutant polypeptide of mouse FGF18(d95)
B5: FGF18: fibroblast growth factor 18 protein; secreted polypeptide of 181 amino acids; commercial FGF18 (PeproTech) used (protein)
chain: EENVDFRIHVENQTRARDDVSRKQLRLYQLYSRTSGKHIQVLGRRISARGEDGDKYAQLLVETDTFGSQVRIKGKETEFYLCMNRKGKLVGKPDGTSKECVFIEKVLENNYTALMSAKYSGWYVGFTKKGRPRKGPKTRENQQDVHFMKRYPKGQPELQKPFKYTTVTKRSRRIRPTHPA
B6: d48: partial peptide of mouse FGF18, 48 amino acids deleted from N-terminus; SEQ ID NO: 21 (protein)
chain: MARGEDGDKYAQLLVETDTFGSQVRIKGKETEFYLCMNRKGKLVGKPDGTSKECVFIEKVLENNYTALMSAKYSGWYVGFTKKGRPRKGPKTRENQQDVHFMKRYPKGQAELQKPFKYTTVTKRSRRIRPTHPG
modifications: truncation mutant polypeptide of mouse FGF18(d48)
B7: d37: partial peptide of mouse FGF18, 37 amino acids deleted from N-terminus; SEQ ID NO: 20 (protein)
chain: MKHIQVLGRRISARGEDGDKYAQLLVETDTFGSQVRIKGKETEFYLCMNRKGKLVGKPDGTSKECVFIEKVLENNYTALMSAKYSGWYVGFTKKGRPRKGPKTRENQQDVHFMKRYPKGQAELQKPFKYTTVTKRSRRIRPTHPG
modifications: truncation mutant polypeptide of mouse FGF18(d37)

Tests used:
FGFR3c = assay: Inhibition of FGF18-stimulated DNA synthesis (cell growth) in FGFR3c/BaF3 cells by FGF18 partial peptides; format: cell-based, mouse
Excerpt: (§1) According to teachings disclosed in literature, the FGF receptor genes FGFR1c, FGFR2c, FGFR3c and FGFR4 were respectively introduced by means of genetic engineering into Ba/F3 cell strain (obtained from RIKEN BRC) which is mouse IL-3-dependent proB cell to thereby prepare cells on whose surface FGFR was compulsively expressed (Ornitz, D M., Xu, J., Colvin, J S., McEwen, D G, MacArthur, C A., Coulier, E, Gao, G. and Goldfarb, M., 1996. Receptor specificity of the fibroblast growth factor family. J. Biol. Chem. 271(25):15292-15297; Yoneda, A., Asada, M., Oda, Y, Suzuki, M. and Imamura, T., 2000. Engineering of an FGF-proteoglycan fusion protein with heparin-independent, mitogenic activity. Nat. Biotec. 18(6):641-644).
(§2) Using these cells, the antagonist activity of test samples [whether or not test samples inhibit the DNA synthesis of FGF18-stimulated cell (this is taken as 100%)] was examined while stimulating each receptor with 30 ng/ml FGF18, in the co-presence of each partial peptide of FGF18 at 1 μg/ml (FIG. 3A) or at 100 ng/ml (FIG. 3B). Briefly, an activity that inhibits the cell growth stimulating effect of FGF18 was analyzed. Correspondence between individual columns and test samples is as described below.

FGFR4 = target: T1, FGFR4 (Homo sapiens, UniProt P22455); assay: Inhibition of FGF18-stimulated DNA synthesis (cell growth) in FGFR4/BaF3 cells by FGF18 partial peptides; format: cell-based, mouse; conditions: test sample 1 μg/ml, 30 ng/ml FGF18, FIG. 3A
T1 construct: expressed in transfected cells; host or cells: Ba/F3 (mouse IL-3-dependent proB cell); R4/Ba/F3 cells under G-418
Excerpt: as §1, §2

[1] = system: human dermal papilla cells (HFDP); assay: Effect of FGF18 on gene expression of hair follicle growth promoting factors in dermal papilla cells; format: cell-based; conditions: dermal papilla cells cultured 24 hr with FGF18, then medium deprived of FGF18, versus continued FGF18-containing medium
Procedure: Cultured human dermal papilla cells (HFDP; from adult human scalp; Toyobo) were subcultured in HFDP growth medium (20% fetal bovine serum-containing basal medium for dermal papilla cell; Toyobo) and used in experiments within two passages. The cells were treated with trypsin and seeded in collagen-coated dishes (Sumilon; 6 cm in diameter) at 4×10^5 cells/dish. The cells were maintained at 37° C. in HFDP medium. On the next day, the medium was exchanged for HEK medium (EpiLife™, 0.06 mM CaCl2, 10 μg/ml insulin, 0.1 ng/ml hEGF, 0.5 μg/ml hydrocortisone, 0.4% BPE), and then FGF18 was added to the medium. After the cells were cultured for 24 hr, the medium was exchanged for FGF18 free medium in the test sample group (“-FGF18”). The control group (“Control”) was cultured continuously in the FGF18-containing medium. Subsequently, the cells were harvested and the mRNA was extracted and purified. The expression levels of mRNA from VEGF (known as a hair follicle growth promoting factor) and noggin (known as a hair growth inhibiting factor) contained in the resultant mRNA were analyzed.

hair follicle growth = assay: Hair growth inhibiting effect by continuous administration of FGF18 in anagen phase-induced C3H/HeN mice; format: in vivo, mouse
Procedure: In order to examine the effect of FGF18 in vivo on hair follicle growth, FGF18 protein dissolved in phosphate buffered physiological saline (PBS) was administered to hair follicle anagen phase-induced mice. Briefly, dorsal hair of 50 day-old C3H/HeN male mice in telogen phase was depilated gently with fingers to thereby induce the start of hair follicle anagen phase. Then, FGF18 solution was injected into the dorsal skin subcutaneously from the vicinity of the tail (1 μg of FGF18 per mouse). The mice were maintained on a diet and water ad libitum. Starting from this day, FGF18 solution was injected subcutaneously into the dorsal skin every day at about the same time for consecutive 8 days. The control group received injection of PBS instead of FGF18. Nine days after the initial injection, the mice were euthanized under anesthesia. Full thickness skin samples were excised from the dorsal part and embedded in paraffin. The thus embedded skin samples were sliced into 4 μm thick sections with a microtome, stained with hematoxylin and observed under microscope.

hair follicles = conditions: single administration to mouse skin in telogen phase; Non-Patent Document 19 and Patent Document 2; cited from earlier work
[2] = test sample 1 μg/ml, 30 ng/ml FGF18, FIG. 3A
[3] = test sample 100 ng/ml, 30 ng/ml FGF18, FIG. 3B

T1 sequence (P22455 22-802, species assumed): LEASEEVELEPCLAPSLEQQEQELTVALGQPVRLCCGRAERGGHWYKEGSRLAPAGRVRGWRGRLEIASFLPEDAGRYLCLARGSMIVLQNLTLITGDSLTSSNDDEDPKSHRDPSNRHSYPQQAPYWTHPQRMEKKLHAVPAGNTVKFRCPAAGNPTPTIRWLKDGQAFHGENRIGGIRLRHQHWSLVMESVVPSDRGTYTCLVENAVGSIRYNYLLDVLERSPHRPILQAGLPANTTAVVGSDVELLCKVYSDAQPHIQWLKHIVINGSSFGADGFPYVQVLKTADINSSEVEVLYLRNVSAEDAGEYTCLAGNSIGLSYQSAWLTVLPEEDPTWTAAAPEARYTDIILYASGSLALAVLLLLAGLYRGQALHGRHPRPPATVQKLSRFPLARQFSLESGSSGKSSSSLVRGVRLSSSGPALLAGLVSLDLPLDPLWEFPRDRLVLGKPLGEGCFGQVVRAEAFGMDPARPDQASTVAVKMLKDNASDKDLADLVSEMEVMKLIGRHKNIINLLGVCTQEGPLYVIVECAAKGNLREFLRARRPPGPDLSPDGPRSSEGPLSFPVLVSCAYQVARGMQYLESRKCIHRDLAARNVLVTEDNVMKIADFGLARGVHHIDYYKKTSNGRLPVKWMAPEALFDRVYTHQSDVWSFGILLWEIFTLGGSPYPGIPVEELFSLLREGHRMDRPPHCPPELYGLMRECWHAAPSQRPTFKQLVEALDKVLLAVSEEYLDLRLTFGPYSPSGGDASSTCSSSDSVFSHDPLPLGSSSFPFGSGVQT

Molecule | inhibition of the activity of FGF18 on FGFR3c/BaF3 cells (FGFR3c; [2]) | inhibition of the activity of FGF18 on FGFR4/BaF3 cells (FGFR4) | further results
B1 | strongly inhibit | strongly inhibit | 
B2 | strongly inhibit | strongly inhibit | 
B3 | strongly inhibit |  | inhibition of the activity of FGF18 on FGFR3c/BaF3 cells (FGFR3c; [3]): strongly inhibit
B4 | strongly inhibit | strongly inhibit | inhibition of the activity of FGF18 on FGFR3c/BaF3 cells (FGFR3c; [3]): strongly inhibit
B5 |  |  | expression level of VEGF mRNA [1]: 4.8 fold; expression level of noggin mRNA [1]: 3.5 fold; hair growth / hair follicle growth (hair follicle growth; 1 μg FGF18 per mouse subcutaneously once a day for 8 days after depilation, observed at day 9, versus PBS): hair growth is strongly inhibited; also recorded: hair growth was markedly inhibited; growth of hair follicles after stopping FGF18 administration (hair follicle growth; continuous administration under the same conditions, then stopped and mice raised thereafter): growth of hair follicles occurred; hair regrowth after single administration (hair follicles): induces hair regrowth
B6 | strongly inhibit | strongly inhibit | 
B7 | strongly inhibit |  | 
